{"source": "paper PMC3299815", "about": "(Biochemistry, 2012)", "proteins": {"B1": {"name": "Rv0203-notag (natural protein)", "chain": "AMAASDPCAASEVARTVGSVAKSMGDYLDSHPETNQVMTAVLQQQVGPGSVASLKAHFEANPKVASDLHALSQPLTDLSTRCSLPISGLQAIGLMQAVQGARR"}}, "molecular_target": "the molecule itself", "assay": "SEC", "data": [{"protein": "B1", "values": [{"measurement": "stoichiometry N", "result": 2}]}]}
